Where two headings read alike, the source gives them in different places.
Legend:
[1] = test system: NIH 3T3 2.2 cells transiently transfected with hIGF2R; test: Internalization in NIH 3T3 2.2 cells transiently transfected with hIGF2R; assay type: cell-based, human; conditions: 25 nM VHH conjugated to Alexa Fluor 647
Method: (§1) To assess if monovalent 13F11 and biparatopic 13F11-13E8 are internalized in the hIGF2R expressing cells, A549 cells (FIG. 16A) and NIH 3T3 2.2 cells transiently transfected with hIGF2R (FIG. 16B) were incubated with 25 nM VHH conjugated to Alexa Fluor 647 (conjugation method as described in example 9.2). A Mouse anti-IGF2R mAb was included to detect IGF2R expression on the hIGF2R transfected cells NIH 3T3 2.2 (FIG. 16B, right column), the mAb was detected with a goat anti-mouse mAb conjugated to Alexa Fluor 555. Additionally, mock transfected NIH 3T3 2.2 cells were incubated with 13F11 and 13F11-13E8 (FIG. 16C). […]
(§2) (FIG. 10D). […] The rate of internalization (endocytic rate constant, ke) of biparatopic constructs 13F11-13E8 and 13E8-13F11 was determined with a kinetic internalization assay on SCC-VII cells transfected with hIGF2R and rIGF2R. […] Subsequently, cells were washed with cold PBS and the non-internalized VHH construct (bound fraction) was separated from the internalized construct (internalized fraction) using an acid-wash, as described above, after which the fluorescence of both fractions were measured. […] Internalization was also observed in rIGF2R expressing SCC cells as a clear increase in fluorescence over time can be shown in FIG. 17 (ke around 0.7 min-1).

hIGF2R-ECD = target: T1, hIGF2R-ECD (Homo sapiens, UniProt P11717); test: Binding assay / titration ELISA on recombinant hIGF2R-ECD; conditions: KD+SEM, n=2, read-out: calculated affinity (KD)
T1 construct: recombinant human extracellular domain of IGF2R (hIGF2R-ECD)
Method: The 15 unique hIGF2R binders (Example 1.1, FIG. 2) were produced and purified as described in examples 2 and 3. The apparent affinities were determined with binding assays on hIGF2R-ECD. Briefly, three-fold serial VHH dilutions, starting from 1 μM, were added onto hIGF2R-ECD coated plates. After 2 hours of incubation, plates were washed and bound VHH was detected using a VHH-specific IgG antibody, followed by an IRD800CW-conjugated IgG-specific antibody. […] VHH 13F11 was also produced with a C-terminal free cysteine and conjugated using maleimide chemistry to Alexa Fluor 647 (13F11-A647 in FIG. 8A, conjugation method as described in example 9.2). A titration ELISA (direct read out at 647 nm) with this construct was carried out on hIGF2R-ECD to determine whether the affinity was affected after site directed conjugation (FIG. 8B). The KD and Bmax were calculated in Graphpad (version 8.3), using one-site specific binding analysis (FIG. 8C).
Based on their high affinity and binding to non-overlapping receptor epitopes, VHHs 13F11 and 13E8 were selected for the design of biparatopic and bivalent VHH constructs. Two VHHs were fused with a flexible linker, consisting of three Gly-Gly-Gly-Gly-Ser repeats (FIG. 8A). The sequences were codon optimized for expression in E. coli and obtained as synthesized DNA fragments from GeneArt. The DNA fragments encoding VHHs were cloned into a vector pET28-based vector introducing a C-terminal free cysteine for site-directed conjugation and His6 tag for IMAC purification (FIG. 8A). The constructs were produced and purified as described in example 3. The constructs were conjugated to Alexa Fluor 647 (conjugation method as described in example 9.2) and titration ELISAs on recombinant hIGF2R-ECD (as described in example 4.1) were performed to determine the KD and Bmax (calculated in Graphpad (version 8.3), using one-site specific binding analysis) (FIG. 8C).
Next, 13F11-13E8 was genetically re-engineered to include an in vivo half-life extender in the form of an albumin binding domain (ABD) as described by Johansson et al (Structure, specificity, and mode of interaction for bacterial albumin-binding modules, J. Biol. Chem. 2002 (277): 8114-8120) and subsequently produced and purified as described in Example 3. Subsequently, 13F11-13E8-ABD was conjugated to IRDye800CW (F11E8-ABD-IRD800, conjugation method as described in example 9.2) and the binding affinities of the biparatopic VHH as well as the ABD unit was determined. […] The binding affinity (KD) of F11-E8-ABD-IRD800 to rat serum albumin (RSA) was 30 nM and to mouse serum albumin (MSA) and human serum albumin (HSA) the binding affinity was approximately 200 nM.

[2] = test system: A549 cells (IGF2R positive); test: Internalization in A549 cells (acid wash, confocal); assay type: cell-based, human; conditions: 25 nM VHH conjugated to Alexa Fluor 647
Method: as §1, §2

[3] = test system: mock transfected NIH 3T3 2.2 cells; test: Internalization in mock transfected NIH 3T3 2.2 cells; assay type: cell-based; conditions: 25 nM VHH conjugated to Alexa Fluor 647
Method: as §1, §2

rat PDGFRB receptor = target: T2, rat PDGFRB receptor (Rattus norvegicus, UniProt Q05030); test: Affinity (KD in nM) | SCC-rPDGFRβ cells
T2 construct: GFP; expressed in transfected cells; host or cells: SCC VII cells
Method: (§3) Table printed on a drawing sheet, FIG. 6
Head of the field: Affinity (KD in nM) | SCC-rPDGFRβ cells
(§4) The patent's description of the figure: FIG. 6. Amino acid sequence of rat PDGFRB VHHs (CDRs underlined). Affinities are measured on rat PDGFRB ectodomain (ECD) and squamous cell carcinoma cells transfected with rat PDGFRB receptor (SCC-rPDGFRB). Data of the competition assays is included to categorize the VHHs in different epitope groups.
(§5) First copying reader's note: Each sequence is printed over two lines and joined here by a blank; the underlining that marks the CDRs is not reproduced.
Where the first naming reader finds the target: description_of_the_figure: squamous cell carcinoma cells transfected with rat PDGFRB receptor (SCC-rPDGFRB)

[4] = target: rat PDGFRB ectodomain (ECD); test: Affinity (KD in nM) | PDGFRβ ECD
Method: as §3
Head of the field: Affinity (KD in nM) | PDGFRβ ECD
as §4, §5
Where the first naming reader finds the target: description_of_the_figure: Affinities are measured on rat PDGFRB ectodomain (ECD) and squamous cell carcinoma cells transfected with rat PDGFRB receptor (SCC-rPDGFRB).

PDGFRB ECD = target: T3, PDGFRB ECD (Homo sapiens, UniProt P09619); test: Competition ELISA with SP02P and SP26P on PDGFRB ECD; assay type: binding; conditions: versus SPO2P
T3 construct: assay with SP02P and SP26P on PDGFRB ECD
T3 sequence (P09619 33-532): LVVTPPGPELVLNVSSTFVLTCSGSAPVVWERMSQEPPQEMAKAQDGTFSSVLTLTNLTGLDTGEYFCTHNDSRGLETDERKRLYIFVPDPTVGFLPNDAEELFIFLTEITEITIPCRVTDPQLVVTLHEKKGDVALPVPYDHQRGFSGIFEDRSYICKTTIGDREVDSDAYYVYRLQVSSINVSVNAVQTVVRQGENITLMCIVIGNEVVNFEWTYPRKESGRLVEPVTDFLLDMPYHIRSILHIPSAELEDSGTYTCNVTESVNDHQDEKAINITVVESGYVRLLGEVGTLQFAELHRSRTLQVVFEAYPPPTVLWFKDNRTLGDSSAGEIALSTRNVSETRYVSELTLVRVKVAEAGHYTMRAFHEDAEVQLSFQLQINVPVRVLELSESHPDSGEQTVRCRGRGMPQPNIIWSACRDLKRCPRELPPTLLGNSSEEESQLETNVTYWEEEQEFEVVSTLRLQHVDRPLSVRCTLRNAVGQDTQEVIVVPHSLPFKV
Method: Competition ELISAs were carried out to determine whether the hPDGFRB specific binders (FIG. 5) and rPDGFRB specific binders (FIG. 6) recognize distinct epitopes on hPDGFRB or rPDGFRB, respectively. The hPDGFRB binding VHHs SPO2P, SP05P, SP12P and SP14P and the rPDGFRB binder SP26P were conjugated to IRDye800CW (VHH-IRDye800CW, conjugation method as described in example 9.2) and each conjugated VHH was mixed with unconjugated competitor in trifold serial dilutions and incubated on immobilized […]. Two VHHs share (part of) the same epitope when the fluorescence signal of the VHH-IRDye800CW decreases upon increasing concentration of unconjugated VHH. Furthermore, using a similar method as described in section 5.1, binding epitope competition between the hPDGFRB binding VHH SPO2P and rPDGFRB binding VHH

rPDGFRB = target: T4, rPDGFRB (Rattus norvegicus, UniProt Q05030); test: Binding assay on SCC VII cells transfected with rPDGFRB; conditions: IRDye800CW conjugate, read-out: binding affinity (KD) to rPDGFRB
T4 construct: GFP; expressed in transfected cells; host or cells: SCC VII cells
T4 sequence (Q05030 32-1097): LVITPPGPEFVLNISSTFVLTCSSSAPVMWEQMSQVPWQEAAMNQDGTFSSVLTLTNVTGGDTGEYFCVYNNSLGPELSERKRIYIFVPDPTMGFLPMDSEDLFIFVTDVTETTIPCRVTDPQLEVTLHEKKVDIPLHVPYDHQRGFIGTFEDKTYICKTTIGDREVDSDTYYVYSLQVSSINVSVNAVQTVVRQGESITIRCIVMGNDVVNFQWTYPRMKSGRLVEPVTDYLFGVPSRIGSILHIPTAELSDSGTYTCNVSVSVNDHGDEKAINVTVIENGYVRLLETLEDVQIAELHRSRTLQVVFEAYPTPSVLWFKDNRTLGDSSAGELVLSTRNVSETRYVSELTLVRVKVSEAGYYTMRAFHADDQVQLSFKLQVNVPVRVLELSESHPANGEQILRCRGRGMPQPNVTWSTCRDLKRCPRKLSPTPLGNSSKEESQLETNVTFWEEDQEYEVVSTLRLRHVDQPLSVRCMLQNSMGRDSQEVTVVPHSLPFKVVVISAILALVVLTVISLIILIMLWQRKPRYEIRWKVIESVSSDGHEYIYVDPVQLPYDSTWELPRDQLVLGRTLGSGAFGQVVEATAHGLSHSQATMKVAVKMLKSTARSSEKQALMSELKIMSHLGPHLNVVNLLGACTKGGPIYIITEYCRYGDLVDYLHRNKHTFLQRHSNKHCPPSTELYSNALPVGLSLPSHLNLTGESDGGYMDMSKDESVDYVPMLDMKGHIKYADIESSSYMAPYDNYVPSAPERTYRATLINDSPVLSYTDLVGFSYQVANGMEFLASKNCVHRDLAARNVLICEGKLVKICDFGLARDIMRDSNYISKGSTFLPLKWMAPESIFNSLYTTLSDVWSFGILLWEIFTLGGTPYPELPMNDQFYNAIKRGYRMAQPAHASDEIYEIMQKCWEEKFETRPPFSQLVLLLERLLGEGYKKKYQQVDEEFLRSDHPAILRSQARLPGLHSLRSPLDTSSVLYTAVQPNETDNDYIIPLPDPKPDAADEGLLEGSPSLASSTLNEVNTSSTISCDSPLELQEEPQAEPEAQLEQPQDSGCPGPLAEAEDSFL
Method: (§6) Based on their high affinity and binding to non-overlapping hPDGRB epitopes, VHHs SPO2P, SP12P SP14P and SP26P were selected for the design of biparatopic VHH constructs and produced in a similar way as described in example 6.1. (FIG. 15A). The binding affinities of the biparatopic constructs were determined with an ELISA assay with the periplasm (FIG. 15A). Moreover, based on their high affinity and binding to non-overlapping rPDGRB epitopes, VHHs SP26P and SP28P were selected for the design of a biparatopic VHH construct and produced in a similar way as described in example 6.1. The formed biparatopic SP28P-SP26P was conjugated to IRDye800CW (SP28P-SP26P-IRDye800CW conjugation method as described in example 9.2) and subjected to a binding assay SCC VII cells transfected with hPDGFRB, rPDGFRB or hIGF2R were performed (FIG. 15B). […] In order to create a biparatopic VHH construct which is cross-reactive for hPDGFRB and rPDGFRB, VHH SPO2P binding to hPDGFRB and VHH SPO26P binding to rPDGFRB were selected and the biparatopic construct SPO2P-SP26P was produced in a similar way as described in example 6.1. (FIG. 15C). Construct SPO2P-SP26P was conjugated to IRDye800CW (SP02P-SP26P-IRDye800CW, conjugation method as described in example 9.2) and subjected to bindings assays on SCC VII cells transfected with hPDGFRB, rPDGFRB or hIGF2R were performed (FIG. 15C). […]

hPDGFRB = target: T5, hPDGFRB (Homo sapiens, UniProt P09619); test: Binding assay on SCC VII cells transfected with hPDGFRB; conditions: relative to rPDGFRB
T5 construct: GFP; expressed in transfected cells; host or cells: SCC VII cells
T5 sequence (P09619 33-1106): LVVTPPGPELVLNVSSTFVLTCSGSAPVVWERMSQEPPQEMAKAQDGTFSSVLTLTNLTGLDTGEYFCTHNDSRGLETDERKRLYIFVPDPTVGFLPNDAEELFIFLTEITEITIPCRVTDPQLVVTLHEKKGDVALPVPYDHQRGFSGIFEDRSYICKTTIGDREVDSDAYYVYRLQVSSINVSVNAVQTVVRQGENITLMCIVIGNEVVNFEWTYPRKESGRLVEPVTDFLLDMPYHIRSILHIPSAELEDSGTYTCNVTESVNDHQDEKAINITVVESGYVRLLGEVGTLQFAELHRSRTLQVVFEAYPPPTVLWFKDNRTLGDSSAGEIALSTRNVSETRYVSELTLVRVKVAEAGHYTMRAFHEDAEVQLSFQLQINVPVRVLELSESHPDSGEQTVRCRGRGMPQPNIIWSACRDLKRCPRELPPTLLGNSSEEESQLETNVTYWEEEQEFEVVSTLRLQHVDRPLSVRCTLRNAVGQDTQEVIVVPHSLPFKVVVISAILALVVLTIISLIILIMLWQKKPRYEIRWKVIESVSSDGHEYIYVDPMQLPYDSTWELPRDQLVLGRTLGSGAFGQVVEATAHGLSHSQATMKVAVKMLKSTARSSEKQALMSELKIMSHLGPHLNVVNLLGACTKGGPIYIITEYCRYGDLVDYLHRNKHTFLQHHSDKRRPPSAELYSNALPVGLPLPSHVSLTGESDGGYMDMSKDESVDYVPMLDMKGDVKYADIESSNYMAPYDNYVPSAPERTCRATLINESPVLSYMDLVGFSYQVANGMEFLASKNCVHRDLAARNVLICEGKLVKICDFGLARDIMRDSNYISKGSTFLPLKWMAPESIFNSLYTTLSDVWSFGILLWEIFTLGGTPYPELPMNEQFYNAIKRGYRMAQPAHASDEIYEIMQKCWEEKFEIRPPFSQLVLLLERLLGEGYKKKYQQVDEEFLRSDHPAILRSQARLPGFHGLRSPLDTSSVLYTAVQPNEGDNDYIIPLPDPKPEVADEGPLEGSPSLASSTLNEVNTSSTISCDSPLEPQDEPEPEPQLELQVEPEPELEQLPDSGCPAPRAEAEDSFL
Method: as §6

[5] = test system: primary activated rat hepatic stellate cells (HSCs); test: Binding (staining) to primary activated rat hepatic stellate cells; assay type: cell-based; conditions: 50 nM, HSCs from BDL rat, 6 days in culture
Method: The cross-reactivity of F11-E8-ABD was further evaluated in binding experiments to primary activated rat hepatic stellate cells (HSCs) by conjugating the construct to Alexa Fluor 488 (FE-A-A488, conjugation method as described in example 9.2). Activated HSCs were obtained from a perfused liver of a cirrhotic bile duct ligated (BDL) rat, the HSCs were isolated using density gradient centrifugation. Cells were kept in culture for 6 days to allow complete activation and then stained with 50 nM FE-A-A488. Activation was determined by an additional staining with alpha-smooth muscle actin (a-SMA).

B1: 13F11: VHH targeting IGF2R, SEQ ID NO: 273 (protein, listed as Lama glama)
VHH: EVQLVESGGRLVQPGDSLRLSCAASGRTFSDNAMGWFRQAPGKERRFVAGISWAGGSTYYSDSVKGRFTISRDNAKNTVYLQMNSLKPEDTAVYYCAAGLRAWVQRMPKDYNYWGQGTQVTVSS
Q: What does the source list for B1?
A: internalization in hIGF2R transfected NIH 3T3 2.2 cells [1]: did internalise; Kd (hIGF2R-ECD; construct conjugated to Alexa Fluor 647, direct read out): 1 ± 0.61 nM; Kd (hIGF2R-ECD; unconjugated VHH, one-site specific binding): 0.23 ± 0.05 nM; internalization in A549 cells [2]: no internalization was observed; internalization in mock transfected NIH 3T3 2.2 cells [3]: did not internalize

B2: SP26P: rPDGFRB binding VHH, SEQ ID NO: 153 (protein, listed as Lama glama)
VHH: EVQLVESGGGLVQAGGSLRLSCAASGRSFSSSVMGWFRQTPGKEREFVAATRWTAASTHYADSVKGRFTISRDHAENAVFLQMNSLKPEDTAVYYCAAGNYLDTAQYRYNYWGQGTQVTVSS
Q: How did the Kd (rat PDGFRB receptor) turn out when B2 was run?
A: 0.3 nM

Q: And the Kd [4]?
A: 5.1 nM

Q: What about the “binding epitope competition between SPO2P and SP26P” value (PDGFRB ECD) of the same molecule?
A: No competition

B3: SP28P-SP26P-IRDye800CW: biparatopic SP28P-SP26P conjugated to IRDye800CW (conjugate)
chain: EVQLVESGGGLVQAGGSLRLSCAASGSIVSFNGINWYRQAPGKQREWVGGITQGGNTMYADSVRGRFTISRDNTKNTMYLQMNSLKPEDTAVYYCRRPPVASWGQGTQVTVSSGGGGSGGGGSGGGGSEVQLVESGGGLVQAGGSLRLSCAASGRSFSSSVMGWFRQTPGKEREFVAATRWTAASTHYADSVKGRFTISRDHAENAVFLQMNSLKPEDTAVYYCAAGNYLDTAQYRYNYWGQGTQVTVSS
modifications: left off: small tags and cut ends
Q: How did the Kd (rPDGFRB) turn out when B3 was run?
A: < 1 nM

Q: And the “binding affinity to hPDGFRB” value (hPDGFRB)?
A: a few orders of magnitude lower

B4: FE-A-A488: 13F11-13E8-ABD conjugated to Alexa Fluor 488 (conjugate)
chain: EVQLVESGGRLVQPGDSLRLSCAASGRTFSDNAMGWFRQAPGKERRFVAGISWAGGSTYYSDSVKGRFTISRDNAKNTVYLQMNSLKPEDTAVYYCAAGLRAWVQRMPKDYNYWGQGTQVTVSSGGGGSGGGGSGGGGSEVQLVESGGGLVQAGGSLRLSCAASRSISPMGWYRQAPGKQRELVAIMPSSGPPIYADSVQGRFTISRDNAKNTVYLQMNSLKPEDTAVYYCNVGGGYWGQGTQVTVSS
modifications: left off: large carriers; small tags and cut ends
Q: For B4, which “binding to activated rat HSCs” value [5] is on record?
A: binds to rat HSCs

— patent publication US12552866B2, “Internalizing binding molecules targeting receptors involved in cell proliferation or in cell differentiation” (LinXis B.V., priority 2019, dated 2026)
